Results: patent US20170174733A1 (Genentech, published 2017)
Residue numbers refer to the chain shown, from its start. Names and notes keep the numbering of the source.

B1: chagasin VEGF variant L4X8-9 (designed binder)
chain: MSHKVTKAHNGATLTVAVGELVEIQLPSNYFYDGFAWYFEGGTKESPNESMFTVENKYFPSGSYMSYSGAGGTEHFHVTVKAAGTHAVNLTYMAPWLGPSRDLERFTVYLKAN
B2: chagasin VEGF variant E4B-5 (designed binder)
chain: B1 chain with D33E, S61N, S63P, Y64G, M65L, S66G, Y67V, S68Y, L97Q, D102E
B3: chagasin VEGF variant E4B-7 (designed binder)
chain: MSHKVTKAHNGATLTVAVGELVEIQLPSNYYYDGFAWYFEGGTKESPNESMFTVENKYFPNVNGSHAWGAGGTEHFHVTVKAAGTHAVNLTYMAPWSGPSRFLERFTVYLKAN
B4: chagasin VEGF variant E4B-10 (designed binder)
chain: B3 chain with Y31F, N61D, V62D, N63P, H66G, A67L, F102Y
B5: chagasin VEGF variant L4X6-3 (designed binder)
chain: MSHKVTKAHNGATLTVAVGELVEIQLPSNYFNDGFAWYFEGGTKESPNESMFTVENKYFPGSSYWGGAGGTEHFHVTVKAAGTHAVNLTYMAPWAGPSRVLERFTVYLKAN
B6: chagasin VEGF binder Variant 66-L2-K (designed binder)
chain: MSHKVTKAHNGATLTVAVGELVEIQLPSNYYKDGFAWYFEGGTKESPNESMFTVENKYFPHYYNLGGRYTGAGGTEHFHVTVKAAGTHAVNLTYMGPWLGPSRVLERFTVYLKAN
B7: chagasin VEGF binder Variant 66-L4-T (designed binder)
chain: B6 chain with K32Y, Y63T, A72G, G73A
B8: chagasin VEGF binder Variant 66-L4-S (designed binder)
chain: B6 chain with K32Y, Y63S, A72G, G73A
B9: chagasin VEGF binder Variant 66-L4-Q (designed binder)
chain: B6 chain with K32Y, Y63Q
B10: phage-displayed chagasin VEGF variant 1-90-H6 (designed binder)
chain: MADPNRFRGKDLGSLEMSHKVTKAHNGATLTVAVGELVEIQLPSNLQDSGFAWYFEGGTKESPNESMFTVENKYFPSGTTGKSNGAGGTEHFHVTVKAAGTHAVNLTYMFKSRGLMVPLERFTVYLKANGGSGGSGGS
notes: not shown: phage coat protein g3 (p3)
B11: phage-displayed chagasin VEGF variant 4-66-F6 (designed binder)
chain: MADPNRFRGKDLGSLEMSHKVTKAHNGATLTVAVGELVEIQLPSNYFYDGFAWYFEGGTKESPNESMFTVENKYFPNDPGSRLSGAGGTEHFHVTVKAAGTHAVNLTYMAPWLGPSRVLERFTVYLKANGGSGGSGGS
notes: as for B10
B12: phage-displayed chagasin VEGF variant 3-65-F5 (designed binder)
chain: MADPNRFRGKDLGSLEMSHKVTKAHNGATLTVAVGELVEIQLPSNYRDSGFAWYFEGGTKESPNESMFTVENKYFPVRAGQANEGAGGTEHFHVTVKAAGTHAVNLTYMSPVLGPRFWLERFTVYLKANGGSGGSGGS
notes: as for B10
B13: phage-displayed chagasin VEGF variant 2-40-D4 (designed binder)
chain: MADPNRFRGKDLGSLEMSHKVTKAHNGATLTVAVGELVEIQLPSNLQNAGFAWYFEGGTKESPNESMFTVENKYFPLSLYASETGAGGTEHFHVTVKAAGTHAVNLTYMNPNWGPDYWIERFTVYLKANGGSGGSGGS
notes: as for B10
B14: phage-displayed chagasin VEGF variant 5-44-D8 (designed binder)
chain: MADPNRFRGKDLGSLEMSHKVTKAHNGATLTVAVGELVEIQLPSNLRSMGFAWYFEGGTKESPNESMFTVENKYFPAGPSAVPLGAGGTEHFHVTVKAAGTHAVNLTYMAPWRGPANVIERFTVYLKANGGSGGSGGS
notes: as for B10

molecular target: T1, human VEGF (human, UniProt P15692 27-191); experiment: cell-based or functional assay
T1 sequence (P15692 other isoform, or with tags, fused parts or gaps limits assumed): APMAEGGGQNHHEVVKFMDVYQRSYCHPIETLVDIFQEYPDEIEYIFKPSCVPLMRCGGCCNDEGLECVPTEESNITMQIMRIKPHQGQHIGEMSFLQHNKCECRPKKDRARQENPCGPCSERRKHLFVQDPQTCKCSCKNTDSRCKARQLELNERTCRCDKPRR

Row | Binder | IC50, inhibition of VEGF-dependent signaling through the KDR receptor on cells | fold improvement of IC50 over the parental chagasin variant 4
1 | B1 | 301 nM | 2 fold

molecular target: T1, human VEGF; experiment: cell-based or functional assay; remark: another data set of the same source

Row | Binder | Inhibitory Activity (IC50, nM) against hVEGF in cell-based assays
2 | B2 | 800 nM
3 | B3 | 550 nM
4 | B1 | 300 nM
5 | B4 | 610 nM
6 | B5 | 710 nM

molecular target: T2, VEGF109 (UniProt P15692 214-315, biotinylated where loaded on streptavidin tips); experiment: BLI (Octet) on VEGF109
T2 construct: range 8-109; also called VEGF8-109; biotinylated VEGF109
T2 sequence: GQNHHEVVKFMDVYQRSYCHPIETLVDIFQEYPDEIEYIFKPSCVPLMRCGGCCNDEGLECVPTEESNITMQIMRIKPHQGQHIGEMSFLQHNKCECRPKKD
Method: Binding affinities of chagasin variants for the targets LRP6 and VEGF109 were measured using the OctetRED384 (ForteBio). All washes, dilutions and measurements were performed in PBS-based kinetics buffer (ForteBio) with the plate shaking at 1000 rpm. Streptavidin biosensors (SA tips, ForteBio) were equilibrated in kinetics buffer for 5 min and then loaded with either biotinylated LRP6-E1E2 or biotinylated VEGF109 (20 μg/ml) to a density of 2 nm signal difference, followed by a 3 min washing step. […] Dissociation of the chagasin variant-target complex was measured in wells containing kinetics buffer alone for up to 30 min. Sensorgrams with ligand-loaded SA tips going through wells containing only buffer in both association and dissociation measurement were used as reference for background subtraction. Kd, kₐ and kd were determined using the Octet evaluation software v7.0.1.3. using a 1:1 binding model with global fitting. Alternatively, AMC-biosensors (Fortebio) were loaded with StrepMAB-Immo (IBA GmbH) to saturation and subsequently used to capture Strep-tag II containing chagasin variants to saturation. After 5 min of washing in kinetics buffer, binding kinetics to unlabeled LRP6-E1E2 fragment was determined essentially as described above.

Row | Binder | Kd
7 | B6 | 61 nM
8 | B7 | 51 nM
9 | B8 | 50 nM
10 | B9 | 80 nM

molecular target: T2, VEGF109; experiment: phage ELISA, 5 ug/ml VEGF coated on 384-well Maxisorp, OD 450 nm

Row | Binder | EC50 (read off the curve)
11 | B10 | ~0.006 OD 268 nM
12 | B11 | ~0.007 OD 268 nM
13 | B12 | ~0.004 OD 268 nM
14 | B13 | ~0.003 OD 268 nM
15 | B14 | ~0.003 OD 268 nM
